From patent US20260193348A1 (ANTENGENE BIOLOGICS, published 2026)
Positions count from the first letter of the chain named. Names and notes keep the numbering of the source.

T1: CD19 on NALM6 cells, Raji cells and primary B cells (human, UniProt P15391 20-556)
T1 construct: whole, on cells; Endogenous CD19 on human cell lines / donor B cells; also called NALM6 cells expressing CD19; Raji cells expressing CD19
T1 sequence (looked up): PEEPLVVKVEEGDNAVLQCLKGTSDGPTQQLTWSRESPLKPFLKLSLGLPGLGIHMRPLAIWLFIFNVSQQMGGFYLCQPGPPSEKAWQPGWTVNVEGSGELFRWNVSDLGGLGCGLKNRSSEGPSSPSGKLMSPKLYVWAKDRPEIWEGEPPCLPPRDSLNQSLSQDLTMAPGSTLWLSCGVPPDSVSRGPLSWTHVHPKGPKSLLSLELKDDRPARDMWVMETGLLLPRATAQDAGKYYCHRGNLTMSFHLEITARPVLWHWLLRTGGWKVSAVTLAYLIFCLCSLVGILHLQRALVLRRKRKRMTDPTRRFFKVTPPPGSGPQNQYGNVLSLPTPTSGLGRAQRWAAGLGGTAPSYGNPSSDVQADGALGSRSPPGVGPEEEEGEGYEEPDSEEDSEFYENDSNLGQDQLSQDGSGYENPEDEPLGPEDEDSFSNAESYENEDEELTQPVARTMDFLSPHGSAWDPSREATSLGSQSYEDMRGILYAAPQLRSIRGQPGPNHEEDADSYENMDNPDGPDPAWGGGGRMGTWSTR

B1: 40E9-L2H3 (antibody, V domains shown)
VH: EVQLVQSGAEVKKPGSSVKVSCKASGYTFSSYVIHWVRQAPGQCLEWMGYINPYNDVIKYNEKFKGRVTLTSDKSTSTAYMELSSLRSEDTAVYYCARDSYYSYDGFAYWGQGTLVTVSS
VL: EIVLTQSPDFQSVTPKEKVTITCSASSSVSYMHWYQQKPDQSPKRLIYDTSKLASGVPSRFSGSGSGTDFTLTINSLEAEDAATYYCQQWSSNPPTFGCGTKVEIK
notes: also called ch40E9-derived humanized antibody 40E9-L2H3
B2: 40E9-L2H3-N55S.H (antibody, V domains shown)
VH: B1 VH with N55S
VL: B1 VL
notes: also called 40E9-N55S
B3: Bis-40E9-L2H3-D105R.H (bispecific antibody)
VH: EVQLVQSGAEVKKPGASVKVSCKASGYTFTSYVIHWVRQAPGQGLEWMGYFNPYNDGTKYNEEFKGRVTLTSDKSTSTAYMELRSLRSDDTAVYYCARGGVRRYFDVWGQGTTVTVSS
VL: DIQMTQSPSSLSASVGDRVTITCRASQDIGSNLNWLQQKPGKAIKRLIYATFGLDSGVPSRFSGSRSGTDFTLTISSLQPEDFATYYCQQYASFPYTFGGGTKVEIK
scFv: EVQLVQSGAEVKKPGSSVKVSCKASGYTFSSYVIHWVRQAPGQCLEWMGYINPYNDVIKYNEKFKGRVTLTSDKSTSTAYMELSSLRSEDTAVYYCARDSYYSYRGFAYWGQGTLVTVSSGGGGSGGGGSGGGGSGGGGSEIVLTQSPDFQSVTPKEKVTITCSASSSVSYMHWYQQKPDQSPKRLIYDTSKLASGVPSRFSGSGSGTDFTLTINSLEAEDAATYYCQQWSSNPPTFGCGTKVEIK
notes: L234A/L235A
B4: ATG201-Y101F-19F (bispecific antibody, human IgG1, kappa, L234A L235A)
heavy 1: not shown
heavy 2: EVKLQESGPGLVAPSQSLSVTCTVSGVSLPDYGVSWIRQPPRKGLEWLGVIWGSETTYYNSALKSRLTIIKDNSKSQVFLKMNSLQTDDTAIYYCAKHYYYGGSYAMDYWGQGTSVTVSSASTKGPSVFPLAPSSKSTSGGTAALGCLVKDYFPEPVTVSWNSGALTSGVHTFPAVLQSSGLYSLSSVVTVPSSSLGTQTYICNVNHKPSNTKVDKKVEPKSCGGGGSGGGGSEVQLVQSGAEVKKPGSSVKVSCKASGYTFSSYVIHWVRQAPGQCLEWMGYINPYNDVIKYNEKFKGRVTLTSDKSTSTAYMELSSLRSEDTAVYYCARDSFYSYDGFAYWGQGTLVTVSSGGGGSGGGGSGGGGSGGGGSEIVLTQSPDFQSVTPKEKVTITCSASSSVSYMHWYQQKPDQSPKRLIYDTSKLASGVPSRFSGSGSGTDFTLTINSLEAEDAATYYCQQWSSNPPTFGCGTKVEIKGGGGSGGGGSDKTHTCPPCPAPEAAGGPSVFLFPPKPKDTLMISRTPEVTCVVVDVSHEDPEVKFNWYVDGVEVHNAKTKPREEQYNSTYRVVSVLTVLHQDWLNGKEYKCKVSNKALPAPIEKTISKAKGQPREPQVCTLPPSREEMTKNQVSLSCAVKGFYPSDIAVEWESNGQPENNYKTTPPVLDSDGSFFLVSKLTVDKSRWQQGNVFSCSVMHEALHNHYTQKSLSLSPGK
light: DIQMTQTTSSLSASLGDRVTISCRASQDISKYLNWYQQKPDGTVKLLIYHTSRLHSGVPSRFSGSGSGTDYSLTISNLEQEDIATYFCQQGNTLPYTFGGGTKLEITRTVAAPSVFIFPPSDEQLKSGTASVVCLLNNFYPREAKVQWKVDNALQSGNSQESVTEQDSKDSTYSLSSTLTLSKADYEKHKVYACEVTHQGLSSPVTKSFNRGEC
notes: CD19xCD3 Fab-scFv-Fab: two C19F Fabs, anti-CD3 scFv 40E9-L2H3-Y101F.H; L234A/L235A
B5: ATG201-N55S-19F (bispecific antibody, human IgG1, kappa, L234A L235A)
heavy 1: not shown
heavy 2: B4 heavy 2 with N288S, F334Y
light: B4 light
notes: CD19xCD3 Fab-scFv-Fab: two C19F Fabs, anti-CD3 scFv 40E9-L2H3-N55S.H; L234A/L235A
B6: ATG201-D105R-19B (bispecific antibody, human IgG1, kappa, L234A L235A)
heavy 1: not shown
heavy 2: QVQLQQSGAELVRPGSSVKISCKASGYAFSSYWMNWVKQRPGQGLEWIGQIWPGDGDTNYNGKFKGKATLTADESSSTAYMQLSSLASEDSAVYFCARRETTTVGRYYYAMDYWGQGTTVTVSSASTKGPSVFPLAPSSKSTSGGTAALGCLVKDYFPEPVTVSWNSGALTSGVHTFPAVLQSSGLYSLSSVVTVPSSSLGTQTYICNVNHKPSNTKVDKKVEPKSCGGGGSGGGGSEVQLVQSGAEVKKPGSSVKVSCKASGYTFSSYVIHWVRQAPGQCLEWMGYINPYNDVIKYNEKFKGRVTLTSDKSTSTAYMELSSLRSEDTAVYYCARDSYYSYRGFAYWGQGTLVTVSSGGGGSGGGGSGGGGSGGGGSEIVLTQSPDFQSVTPKEKVTITCSASSSVSYMHWYQQKPDQSPKRLIYDTSKLASGVPSRFSGSGSGTDFTLTINSLEAEDAATYYCQQWSSNPPTFGCGTKVEIKGGGGSGGGGSDKTHTCPPCPAPEAAGGPSVFLFPPKPKDTLMISRTPEVTCVVVDVSHEDPEVKFNWYVDGVEVHNAKTKPREEQYNSTYRVVSVLTVLHQDWLNGKEYKCKVSNKALPAPIEKTISKAKGQPREPQVCTLPPSREEMTKNQVSLSCAVKGFYPSDIAVEWESNGQPENNYKTTPPVLDSDGSFFLVSKLTVDKSRWQQGNVFSCSVMHEALHNHYTQKSLSLSPGK
light: not shown
notes: CD19xCD3 Fab-scFv-Fab: two C19B Fabs, anti-CD3 scFv 40E9-L2H3-D105R.H; L234A/L235A
B7: ch40E9 (antibody, V domains shown)
VH: EVQLQLSGPELVKPGASVKMSCKASGYTFSSYVIHWVKQKPGQGLEWIGYINPYNDVIKYNEKFKGKATLTSDKSSSTAYMELSSLTSEDSAVYYCARDSYYSYDGFAYWGQGTLVTVSA
VL: QIVLTQSPAIMSASPGEKVTMTCSASSSVSYMHWYQQKSGTSPKRWIYDTSKLASGVPARFSGSGSGTSYSLTISSMEAEDAATYYCQQWSSNPPTFGGGTKVEIK
notes: also called 40-C12-C10-E9

Experiments:
[1] = molecular target: T2, CD3ε monomer (UniProt P07766 23-126); experiment: ELISA, soluble protein coated at 0.2 or 2 ug/mL
T2 construct: also called nature CD3ε; denatured CD3ε monomer

[2] = molecular target: T3, CD3 on T cells / Jurkat cells (human, UniProt P07766 23-207; P04234 22-171; P09693 23-182); experiment: FACS on Jurkat cells
T3 construct: whole, on cells; Native CD3 complex on CD3+ T cells isolated from normal donors or on Jurkat cells; also called human CD3; CD3+ T cells

[3] = molecular target: T4, GPRC5D on multiple myeloma cells (human, UniProt Q9NZD1 1-345); experiment: FACS on multiple myeloma cell lines
T4 construct: whole, on cells; Endogenous GPRC5D on multiple myeloma cell lines; also called G-protein coupled receptor family C group 5 member D; MM.1S, MOLP-8, L363, RPMI8226 cells

[4] = molecular target: T3, CD3 on T cells / Jurkat cells; experiment: FACS on Jurkat cells expressing CD3
[5] = molecular target: T1, CD19 on NALM6 cells, Raji cells and …; experiment: FACS on Raji cells expressing CD19 (FIG. 45C)
Method: (§1) To evaluate the binding affinity of the generated bispecific antibodies to NALM6 cells, Raji cells, Primary B cells, DoHH2 cells, SU-DHL-1 cells and Jurkat cells, the NALM6 cells expressing CD19, Raji cells expressing CD19, Primary B cells, DoHH2 cells expressing CD20, SU-DHL-1 cells without expressing CD19 or CD20 and Jurkat cells expressing CD3 were stained by the test antibodies and the binding affinity was determined by FACS analysis. Primary B cells were isolated from healthy donors' PBMC by human B cell enrichment Kit (Stemcell #19054). The protocol of FACS analysis is described as follows: [0933] (a) The cells from each cell line above were harvested and centrifuged at 300 g for 5 min, and the supernatant were discarded. […] (b) The cells were washed 2 times with FACS buffer. [0935] (c) Step (a) was repeated. [0936] […] [0937] (e) Step (b) was repeated and the cells were resuspended with 100 μl/well diluted secondary antibody, and incubated at 4° C. for 45 minutes in the dark. [0938] (f) Step (b) was repeated and the cells were resuspended the cells with 150 μl/well FACS buffer and kept in dark for FACS analysis.

[6] = molecular target: T1, CD19 on NALM6 cells, Raji cells and …; experiment: FACS on NALM6 cells expressing CD19 (FIG. 45A)
[7] = molecular target: T1, CD19 on NALM6 cells, Raji cells and …; experiment: FACS on NALM6 cells expressing CD19, another experiment (FIG. 45B)
Method: as §1

[8] = molecular target: T1, CD19 on NALM6 cells, Raji cells and …; experiment: FACS on primary B cells from healthy donors' PBMC (FIG. 45D)
Method: as §1

T3 sequence (P07766 23-207, chain 1 of 3): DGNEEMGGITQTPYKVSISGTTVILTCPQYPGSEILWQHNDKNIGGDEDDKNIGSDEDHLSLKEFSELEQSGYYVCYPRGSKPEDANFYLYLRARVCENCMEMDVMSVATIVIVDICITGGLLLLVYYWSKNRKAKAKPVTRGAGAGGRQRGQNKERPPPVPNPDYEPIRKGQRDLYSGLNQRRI
T3 sequence (P04234 22-171, chain 2 of 3): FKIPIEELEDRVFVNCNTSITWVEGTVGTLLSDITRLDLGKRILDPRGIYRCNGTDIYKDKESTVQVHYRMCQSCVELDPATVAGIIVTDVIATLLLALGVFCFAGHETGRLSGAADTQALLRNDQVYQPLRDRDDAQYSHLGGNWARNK
T3 sequence (P09693 23-182, chain 3 of 3): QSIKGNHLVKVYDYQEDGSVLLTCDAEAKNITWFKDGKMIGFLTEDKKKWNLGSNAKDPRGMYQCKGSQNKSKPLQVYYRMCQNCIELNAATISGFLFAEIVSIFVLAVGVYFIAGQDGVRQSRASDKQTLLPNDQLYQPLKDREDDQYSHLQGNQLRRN
T2 sequence (P07766 23-126): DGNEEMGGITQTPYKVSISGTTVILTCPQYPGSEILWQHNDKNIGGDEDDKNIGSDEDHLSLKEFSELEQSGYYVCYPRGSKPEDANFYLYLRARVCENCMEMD
T4 sequence (Q9NZD1 whole entry): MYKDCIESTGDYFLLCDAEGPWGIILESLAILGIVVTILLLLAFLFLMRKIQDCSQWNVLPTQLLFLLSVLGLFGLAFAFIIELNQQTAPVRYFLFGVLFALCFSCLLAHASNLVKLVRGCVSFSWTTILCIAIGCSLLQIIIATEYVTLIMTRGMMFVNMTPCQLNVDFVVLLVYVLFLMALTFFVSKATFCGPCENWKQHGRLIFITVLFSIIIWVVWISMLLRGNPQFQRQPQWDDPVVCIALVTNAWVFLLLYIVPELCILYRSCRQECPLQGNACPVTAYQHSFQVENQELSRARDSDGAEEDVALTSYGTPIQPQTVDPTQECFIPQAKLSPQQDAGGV

Binder	binding result [1]	binding result [4]	EC50 [6] [nM]	also measured
B1	no binding	–	–	–
B2	no binding	–	–	–
B3	–	–	–	binding result [2]: binds; binding result [3]: binds
B4	–	binds	4.36	EC50 [5]: 1.13 nM; EC50 [7]: 0.609 nM; EC50 [8]: 0.468 nM
B5	–	binds	4.91	EC50 [5]: 1.5 nM; EC50 [7]: 0.847 nM; EC50 [8]: 1.08 nM
B6	–	binds	2.9	–
B7	no binding	–	–	–
